What is called Kd is the concentration at which binding is half-saturated.

One experiment deals with HLA-A*11:01. The experiment can be described thus: IEDB peptide-MHC binding, purified MHC/competitive/radioactivity; filed as Kd, often an IC50 or EC50 that approximates it; ≥ and ≤ were set here for values at or beyond the usual limits of such assays.
The target in a further experiment is HLA-A*30:01. The description is as above.
For a further experiment, the target named is HLA-A*02:03. The experiment is described as above.
Another experiment addresses HLA-B*08:01. The experiment is described as above.
The target of the next experiment is HLA-B*15:01. The experiment is described as above.
In another experiment the target is HLA-A*01:01. Described as above.
The target in the next experiment is HLA-A*03:01. The description is as above. The following applies: source organism: Triticum aestivum.
The next experiment deals with HLA-A*23:01. The experiment is described as above.
Another experiment concerns the target HLA-A*24:02. The experiment is described as above.
A further experiment concerns the target HLA-A*26:01. Described as above.
The next experiment deals with HLA-A*29:02. Described as above.
For a further experiment, the target named is HLA-A*30:02. Described as above.
The target in the next experiment is HLA-A*31:01. The experiment is described as above. Conditions: source organism: Triticum aestivum.
A further experiment addresses HLA-A*33:01. The description is as above. Conditions: source organism: Triticum aestivum.
The target in another experiment is HLA-A*68:01. The description is as above.
Another experiment addresses HLA-B*51:01. The experiment can be described thus: IEDB peptide-MHC binding, purified MHC/competitive/fluorescence; filed as Kd, often an IC50 or EC50 that approximates it; ≥ and ≤ were set here for values at or beyond the usual limits of such assays. The following applies: source organism: Yersinia pestis Nepal516.
A further experiment deals with HLA-A*02:02. The experiment can be described thus: IEDB peptide-MHC binding, purified MHC/competitive/radioactivity; filed as Kd, often an IC50 or EC50 that approximates it; ≥ and ≤ were set here for values at or beyond the usual limits of such assays. The following applies: source organism: Homo sapiens.
The target in the next experiment is HLA-A*68:02. The description is as above.
The next experiment deals with HLA-B*35:01. The experiment is described as above.
The next experiment has as its target HLA-B*53:01. The experiment is described as above. Conditions: source organism: Dengue virus 3 Singapore/8120/1995.
In another experiment the target is HLA-A*02:06. The description is as above. Conditions: source organism: Homo sapiens.
In the next experiment the target is HLA-A*24:03. The experiment can be described thus: IEDB peptide-MHC binding, purified MHC/direct/fluorescence; filed as Kd, often an IC50 or EC50 that approximates it; ≥ and ≤ were set here for values at or beyond the usual limits of such assays. The following applies: source organism: Vibrio parahaemolyticus.
For another experiment, the target named is HLA-A*02:01. The experiment can be described thus: IEDB peptide-MHC binding, purified MHC/competitive/fluorescence; filed as Kd, often an IC50 or EC50 that approximates it; ≥ and ≤ were set here for values at or beyond the usual limits of such assays. The following applies: source organism: Variola virus.
[1] abbreviates: source organism: Dengue virus 3 Martinique/1243/1999.
The mark [2] stands for this setting: source organism: Dengue virus 2 Jamaica/1409/1983.
The mark [3] stands for this setting: source organism: Dengue virus 4 Philippines/H241/1956.
The mark [4] stands for this setting: source organism: Vaccinia virus WR.
Where [5] appears, read: source organism: Triticum aestivum.
Where [6] appears, read: source organism: Dengue virus 1 Brazil/97-11/1997.
[7] abbreviates: source organism: SARS coronavirus Tor2.

In the case of ATQLATLRK, the results for the Kd with HLA-A*11:01 (setting [1]) and with HLA-A*30:01 (setting [1]) were 67.8 nM and 5.76 nM, respectively. Regarding GMNSRSTSL, the Kd with HLA-A*02:03 (setting [2]) was found to be 18.2 nM; with HLA-B*08:01 (setting [2]), 7.81 nM; with HLA-B*15:01 (setting [2]), 86.6 nM. On to KARNALDNL, for which the dissociation constant (Kd) with HLA-A*30:01 (source organism: Dengue virus 2 16681-PDK53) was 19.7 nM. With IFKLTYQNK, the Kd in the experiment with HLA-A*30:01 (setting [2]) was 340 nM. The same measure, in the same setting: under KAERVIDPRR stands 11400 nM.

Take YRGAKRMAIL: the Kd in the experiment with HLA-B*08:01 (setting [3]) was 130 nM. Consider MSRKFMQVY, for which the Kd in the experiment with HLA-A*30:01 (setting [4]) turned out to be 1.46 nM. Consider VVLQQHSIAY, for which the dissociation constant Kd is no less than 70400 nM with HLA-A*01:01 (setting [5]); 2340 nM in the experiment with HLA-A*03:01; 1640 nM with HLA-A*11:01 (setting [5]); no less than 25900 nM with HLA-A*23:01 (setting [5]); no less than 39900 nM with HLA-A*24:02 (setting [5]); no less than 69700 nM in the experiment with HLA-A*26:01 (setting [5]). Also, the dissociation constant Kd in the experiment with HLA-A*29:02 (setting [5]) is 1040 nM; with HLA-A*30:02 (setting [5]), 5390 nM; in the experiment with HLA-A*31:01, no less than 70000 nM; with HLA-A*33:01, no less than 70000 nM; with HLA-A*68:01 (setting [5]), no less than 24900 nM. In the experiment with HLA-B*51:01, LALDSYWPV returned a Kd of 711 nM.

Regarding NSKSRICVI, the Kd came out at 11.1 nM in the experiment with HLA-B*08:01 (setting [4]) and 1400 nM in the experiment with HLA-B*15:01 (setting [4]). With MRFKKESSL, the equilibrium dissociation constant (Kd) in the experiment with HLA-B*08:01 (setting [4]) came out at 3.4 nM. For the sequence LDILTEIASL, in the experiment with HLA-B*08:01 (setting [3]), the Kd is 871 nM. Take LLSGAGEHL: the dissociation constant Kd with HLA-A*02:02 is 5.73 nM; in the experiment with HLA-A*02:03 (source organism: Homo sapiens), 19.2 nM; with HLA-A*68:02 (source organism: Homo sapiens) it was no less than 47200 nM. Consider HLIFSYAFL, for which the Kd with HLA-A*30:01 (setting [4]) was 213 nM. MPGIFQTTTG: the dissociation constant Kd was 1180 nM with HLA-B*35:01 (source organism: Dengue virus 3 Singapore/8120/1995) and 546 nM with HLA-B*53:01. For the sequence ILKNSQGEEV, the Kd in the experiment with HLA-A*02:06 is no less than 72500 nM; with HLA-A*68:02 (source organism: Homo sapiens), 2250 nM. In the case of AFYLWIVGF, the Kd in the experiment with HLA-A*24:03 was 2100 nM. Consider RMRFKKGAV, for which the Kd with HLA-B*08:01 (setting [4]) amounted to 5.38 nM.

In the case of WAFCEVLTL, in the experiment with HLA-B*35:01 (setting [3]), the dissociation constant (Kd) was found to be 571 nM.

Consider KARDALDNL, for which the dissociation constant Kd with HLA-A*30:01 (setting [2]) was found to be 71.5 nM. Take RVKQISIST: in the experiment with HLA-A*30:01 (source organism: Vaccinia virus Copenhagen), the dissociation constant (Kd) was 0.369 nM. For MRGAKRMAI, in the experiment with HLA-B*08:01 (setting [2]), the equilibrium dissociation constant (Kd) was 2.44 nM.

As for WAKNIHTAI, the Kd with HLA-B*08:01 (setting [3]) turned out to be 23.3 nM.

As to MAIGIVSILL, the dissociation constant Kd in the experiment with HLA-A*68:02 (setting [6]) came to 15 nM. Take FTNMEVQLIR: the dissociation constant Kd was 87.4 nM with HLA-A*68:01 (setting [6]) and 14600 nM with HLA-B*35:01 (setting [6]).

As for LIDNPDNNL, the Kd in the experiment with HLA-A*02:01 is 77.6 nM. On to FALLKFTYL, for which the Kd with HLA-B*08:01 (setting [4]) is 1.59 nM. For the sequence RTRGPLGIL, the dissociation constant Kd in the experiment with HLA-A*30:01 (setting [4]) came to 0.0861 nM.

As to NLEKQIATL, the dissociation constant (Kd) with HLA-A*68:02 (source organism: Homo sapiens) is no less than 26500 nM. For ETACLGKAYA, the Kd with HLA-A*26:01 (setting [1]) is 207 nM; with HLA-A*68:02 (setting [1]), 3.62 nM. As to IMGQLTWNDL, the Kd with HLA-B*08:01 (setting [6]) is 6490 nM. For SPYYRNSVA, the Kd in the experiment with HLA-B*08:01 (setting [4]) worked out at 111 nM. For the sequence YSAPFESEGV, the dissociation constant Kd with HLA-A*68:02 (setting [3]) worked out at 2.52 nM. With KWADNNCYL, the equilibrium dissociation constant (Kd) in the experiment with HLA-A*01:01 (setting [7]) was no less than 78100 nM; in the experiment with HLA-A*23:01 (setting [7]), 3410 nM; with HLA-A*24:02 (setting [7]) it was 4920 nM; in the experiment with HLA-A*26:01 (setting [7]) it was no less than 77900 nM; in the experiment with HLA-A*29:02 (setting [7]), no less than 83300 nM; in the experiment with HLA-A*30:02 (setting [7]) it was no less than 78900 nM. With VAATMANEM, the Kd with HLA-B*35:01 (setting [2]) stood at 572 nM.

The values are drawn from the Immune Epitope Database (IEDB).
